Results from the supplement of paper PMC9112550, “Optimization of the antimicrobial peptide Bac7 by deep mutational scanning” (BMC Biology, 2022).

These sequences were tested on Escherichia coli TOP10 (assay: shrunken log2 fold change of peptide-encoding DNA abundance (4.5 h post-induction vs induction); higher = less antimicrobial activity (less host growth inhibition)). Details: time post-induction: 4.5 h; library: site-saturation at positions 5, 18, 19, 20.
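Also: peptides expressed intracellularly from a pBAD plasmid library in pooled LB shake-flask culture, induced with 0.3% L-arabinose, DNA abundance read by NGS, three biological replicates, DESeq2 with apeglm shrinkage.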

| Sequence | shrunken log2 fold change |
| --- | --- |
| RRIRERPPRLPRPRPRPTHLPRP | 0.229 |
| RRIRERPPRLPRPRPRPEIHPRP | -0.0198 |
| RRIRRRPPRLPRPRPRPRDLPRP | 0.427 |
| RRIRFRPPRLPRPRPRPQRGPRP | 0.353 |
| RRIRMRPPRLPRPRPRPIADPRP | -0.00229 |
| RRIRWRPPRLPRPRPRPGYIPRP | 0.226 |
| RRIRRRPPRLPRPRPRPNCKPRP | 0.155 |
| RRIRWRPPRLPRPRPRPRFAPRP | 0.695 |
| RRIRIRPPRLPRPRPRPTCWPRP | 0.151 |
| RRIRERPPRLPRPRPRPEWYPRP | 0.0172 |
| RRIRTRPPRLPRPRPRPWFEPRP | 0.647 |
| RRIRIRPPRLPRPRPRPTHQPRP | 0.0537 |
| RRIRHRPPRLPRPRPRPNNMPRP | -0.674 |
| RRIRARPPRLPRPRPRPPHSPRP | 0.902 |
| RRIRCRPPRLPRPRPRPGYMPRP | -0.836 |
| RRIRMRPPRLPRPRPRPTFFPRP | 0.229 |
| RRIRIRPPRLPRPRPRPGGTPRP | -0.439 |
| RRIRDRPPRLPRPRPRPPWPPRP | 0.654 |
| RRIRSRPPRLPRPRPRPTCCPRP | 0.164 |
| RRIRFRPPRLPRPRPRPKSAPRP | -0.00592 |
| RRIRIRPPRLPRPRPRPDSMPRP | -0.00884 |
| RRIRTRPPRLPRPRPRPYVWPRP | -0.131 |
| RRIRGRPPRLPRPRPRPPESPRP | 0.873 |
| RRIRGRPPRLPRPRPRPVVKPRP | 0.246 |
| RRIRDRPPRLPRPRPRPLPWPRP | 0.572 |

| Sequence | shrunken log2 fold change |
| --- | --- |
| RRIRERPPRLPRPRPRPPGHPRP | -0.0333 |
| RRIRVRPPRLPRPRPRPYHIPRP | -1.2 |
| RRIRNRPPRLPRPRPRPNQEPRP | -0.0316 |
| RRIRTRPPRLPRPRPRPPTIPRP | -0.248 |
| RRIRRRPPRLPRPRPRPPGQPRP | 0.422 |
| RRIRKRPPRLPRPRPRPGDSPRP | 0.163 |
| RRIRVRPPRLPRPRPRPEFFPRP | 0.183 |
| RRIRLRPPRLPRPRPRPFFSPRP | -0.0767 |
| RRIRCRPPRLPRPRPRPWMRPRP | 0.19 |
| RRIRERPPRLPRPRPRPDDSPRP | -0.435 |
| RRIRHRPPRLPRPRPRPAHLPRP | 0.0167 |
| RRIRTRPPRLPRPRPRPDCLPRP | -0.0333 |
| RRIRWRPPRLPRPRPRPQTCPRP | 0.108 |
| RRIRSRPPRLPRPRPRPRLVPRP | 0.356 |
| RRIRERPPRLPRPRPRPDLFPRP | 0.462 |
| RRIRERPPRLPRPRPRPVPAPRP | 0.224 |
| RRIRDRPPRLPRPRPRPNLSPRP | -0.115 |
| RRIRGRPPRLPRPRPRPIHHPRP | -0.0166 |
| RRIRSRPPRLPRPRPRPLLHPRP | -0.0854 |
| RRIRERPPRLPRPRPRPVYSPRP | -0.409 |
| RRIRMRPPRLPRPRPRPEVFPRP | 1.35 |
| RRIRGRPPRLPRPRPRPGRWPRP | 0.716 |
| RRIRWRPPRLPRPRPRPFILPRP | -0.476 |
| RRIRSRPPRLPRPRPRPGAPPRP | 0.613 |
| RRIRSRPPRLPRPRPRPGHNPRP | -0.433 |

| Sequence | shrunken log2 fold change |
| --- | --- |
| RRIRERPPRLPRPRPRPGDTPRP | -0.943 |
| RRIRYRPPRLPRPRPRPAGCPRP | -0.177 |
| RRIRHRPPRLPRPRPRPEVCPRP | 0.116 |
| RRIRRRPPRLPRPRPRPCQGPRP | -0.129 |
| RRIRVRPPRLPRPRPRPQNVPRP | -0.51 |
| RRIRVRPPRLPRPRPRPGQSPRP | 0.0938 |
| RRIRMRPPRLPRPRPRPLFAPRP | 0.556 |
| RRIRIRPPRLPRPRPRPFHFPRP | -0.27 |
| RRIRFRPPRLPRPRPRPSGIPRP | -0.287 |
| RRIRYRPPRLPRPRPRPVILPRP | -0.0444 |
| RRIRWRPPRLPRPRPRPVESPRP | 0.0647 |
| RRIRLRPPRLPRPRPRPRWDPRP | 0.141 |
| RRIRLRPPRLPRPRPRPWCLPRP | -0.317 |
| RRIRYRPPRLPRPRPRPFKEPRP | -0.146 |
| RRIRPRPPRLPRPRPRPCCRPRP | -0.339 |
| RRIRYRPPRLPRPRPRPAATPRP | 0.208 |
| RRIRVRPPRLPRPRPRPTRKPRP | 0.575 |
| RRIRVRPPRLPRPRPRPCKPPRP | -0.692 |
| RRIRTRPPRLPRPRPRPSREPRP | 0.427 |
| RRIRRRPPRLPRPRPRPWPTPRP | 0.0393 |
| RRIRVRPPRLPRPRPRPRHNPRP | -0.389 |
| RRIRLRPPRLPRPRPRPLRNPRP | 0.737 |
| RRIRDRPPRLPRPRPRPAREPRP | 1.06 |
| RRIRIRPPRLPRPRPRPVNPPRP | 1.75 |
| RRIRVRPPRLPRPRPRPTDHPRP | 0.00915 |

| Sequence | shrunken log2 fold change |
| --- | --- |
| RRIRCRPPRLPRPRPRPCLFPRP | -0.333 |
| RRIRQRPPRLPRPRPRPMHCPRP | 0.0165 |
| RRIRVRPPRLPRPRPRPWTQPRP | -0.219 |
| RRIRKRPPRLPRPRPRPLRFPRP | 0.896 |
| RRIRMRPPRLPRPRPRPGKSPRP | 0.0127 |
| RRIRMRPPRLPRPRPRPIAKPRP | 0.494 |
| RRIRPRPPRLPRPRPRPQKKPRP | -0.113 |
| RRIRQRPPRLPRPRPRPCHTPRP | -0.207 |
| RRIRPRPPRLPRPRPRPLSEPRP | 0.126 |
| RRIRPRPPRLPRPRPRPHPNPRP | 0.00254 |
| RRIRNRPPRLPRPRPRPNYRPRP | -0.264 |
| RRIRQRPPRLPRPRPRPVVEPRP | 0.0249 |
| RRIRCRPPRLPRPRPRPHHDPRP | -0.58 |
| RRIRKRPPRLPRPRPRPGVHPRP | 0.195 |
| RRIRPRPPRLPRPRPRPLHAPRP | 0.282 |
| RRIRWRPPRLPRPRPRPVVWPRP | 0.626 |
| RRIRSRPPRLPRPRPRPDLNPRP | 0.0448 |
| RRIRFRPPRLPRPRPRPCKQPRP | 0.00386 |
| RRIRHRPPRLPRPRPRPHAIPRP | -0.251 |
| RRIRERPPRLPRPRPRPKQLPRP | 0.123 |
| RRIRRRPPRLPRPRPRPHLMPRP | 0.226 |
| RRIRTRPPRLPRPRPRPRAYPRP | -0.339 |
| RRIRGRPPRLPRPRPRPRCIPRP | 0.273 |
| RRIRIRPPRLPRPRPRPVSTPRP | -0.342 |
| RRIRIRPPRLPRPRPRPYDSPRP | -0.423 |

| Sequence | shrunken log2 fold change |
| --- | --- |
| RRIRMRPPRLPRPRPRPYQHPRP | 0.0551 |
| RRIRKRPPRLPRPRPRPITRPRP | 0.132 |
| RRIRERPPRLPRPRPRPIVPPRP | -0.25 |
| RRIRHRPPRLPRPRPRPLFKPRP | -0.183 |
| RRIRIRPPRLPRPRPRPGGKPRP | -0.31 |
| RRIRNRPPRLPRPRPRPERTPRP | -0.00566 |
| RRIRLRPPRLPRPRPRPGHHPRP | -0.2 |
| RRIRFRPPRLPRPRPRPGMIPRP | -0.224 |
| RRIRIRPPRLPRPRPRPYEHPRP | -0.0784 |
| RRIRTRPPRLPRPRPRPSGYPRP | -0.256 |
| RRIRHRPPRLPRPRPRPSYRPRP | -0.481 |
| RRIRQRPPRLPRPRPRPLTNPRP | -0.483 |
| RRIRRRPPRLPRPRPRPQLRPRP | 0.213 |
| RRIRGRPPRLPRPRPRPFHAPRP | -0.13 |
| RRIRHRPPRLPRPRPRPYMLPRP | -1.66 |
| RRIRARPPRLPRPRPRPNHQPRP | 0.243 |
| RRIRDRPPRLPRPRPRPCLRPRP | -0.188 |
| RRIRVRPPRLPRPRPRPLLRPRP | 0.0947 |
| RRIRDRPPRLPRPRPRPPHYPRP | 0.0761 |
| RRIRMRPPRLPRPRPRPLQGPRP | 0.126 |
| RRIRNRPPRLPRPRPRPCQFPRP | -0.0212 |
| RRIRNRPPRLPRPRPRPTWVPRP | 0.0257 |
| RRIRARPPRLPRPRPRPKPNPRP | 0.736 |
| RRIRFRPPRLPRPRPRPCAKPRP | -0.0688 |
| RRIRLRPPRLPRPRPRPDSGPRP | -0.00166 |

| Sequence | shrunken log2 fold change |
| --- | --- |
| RRIRWRPPRLPRPRPRPRYRPRP | 0.124 |
| RRIRSRPPRLPRPRPRPTPIPRP | 0.0944 |
| RRIRGRPPRLPRPRPRPDCIPRP | 0.799 |
| RRIRHRPPRLPRPRPRPDKCPRP | -0.0295 |
| RRIRLRPPRLPRPRPRPQENPRP | -0.261 |
| RRIRSRPPRLPRPRPRPDPGPRP | 0.246 |
| RRIRLRPPRLPRPRPRPYVTPRP | -0.169 |
| RRIRGRPPRLPRPRPRPRLVPRP | 0.725 |
| RRIRMRPPRLPRPRPRPFAWPRP | 0.139 |
| RRIRLRPPRLPRPRPRPMAFPRP | -0.127 |
| RRIRMRPPRLPRPRPRPGAIPRP | 1.4 |
| RRIRYRPPRLPRPRPRPEHHPRP | -0.646 |
| RRIRRRPPRLPRPRPRPIMKPRP | -0.0396 |
| RRIRMRPPRLPRPRPRPSNNPRP | -0.0389 |
| RRIRYRPPRLPRPRPRPVFCPRP | -0.419 |
| RRIRTRPPRLPRPRPRPPQDPRP | 0.608 |
| RRIRARPPRLPRPRPRPCLPPRP | 0.0185 |
| RRIRDRPPRLPRPRPRPNTRPRP | -0.238 |
| RRIRQRPPRLPRPRPRPHRCPRP | 0.109 |
| RRIRMRPPRLPRPRPRPALRPRP | 0.851 |
| RRIRMRPPRLPRPRPRPHLYPRP | -0.0224 |
| RRIRARPPRLPRPRPRPWCIPRP | -0.319 |
| RRIRHRPPRLPRPRPRPTPVPRP | 0.137 |
| RRIRIRPPRLPRPRPRPLMYPRP | -0.513 |
| RRIRRRPPRLPRPRPRPPPEPRP | 1.37 |
